Key:
[1] = molecular target: Labeled bovine β-cardiac heavy meromyosin (HMM) carrying EDANS- and dabcyl-labeled regulatory light chain (bovine) (UniProt P85100); assay: FRET or BRET + cross-linking; time-resolved FRET as in a2 after cross-linking: 5 μM HMM in 10 mM MOPS, 30 mM KCl, 2 mM MgATP, 1 mM DTT, pH 7.5, 0.1% glutaraldehyde for 1 min, quenched with 100 mM Tris pH 7.5; head-head interaction within the molecule
[2] = molecular target: Labeled bovine β-cardiac heavy meromyosin (HMM) carrying EDANS- and dabcyl-labeled regulatory light chain (bovine) (UniProt P85100); assay: FRET or BRET; time-resolved FRET between EDANS- and dabcyl-labeled RLC (1:3) on the two heads of one HMM dimer; head-head interaction within the molecule (interacting-heads motif), not between HMM molecules; in solution, no cross-linker
[3] = molecular target: Labeled bovine β-cardiac heavy meromyosin (HMM) carrying EDANS- and dabcyl-labeled regulatory light chain (bovine) (UniProt P85100); assay: FRET or BRET; time-resolved FRET as in a2 with mavacamten (dose-response) and 2 mM magnesium ATP, incubated 10 min; 5 μM labeled HMM; head-head interaction within the molecule

Substance: Labeled bovine β-cardiac heavy meromyosin (HMM) carrying EDANS- and dabcyl-labeled regulatory light chain (from UniProt P85100 1-199; Q3SZE5 1-166) (complex)
- fraction participating in FRET after glutaraldehyde (head-head interaction within the dimer) [1]: 74%
- percent of molecules in the interacting-heads motif (head-head interaction within the dimer) [2]: 43%
- increase in the population participating in FRET with mavacamten (head-head interaction within the dimer) [3]: 4%
